One assay addresses human Factor IX (human) (UniProt P00740). Description: cell-based or functional assay.
Assay [1] has as its target recombinant human Factor IX (rhFIX, Genetics Institute) (human) (UniProt P00740). Kind of assay: biosensor (BIAcore). (SPR reads the build-up and loss of mass on a sensor chip optically.)
Assay [2] has the same target. Description: titration calorimetry.
For assay [3] the target is unchanged. Kind of assay: isothermal titration calorimetry. In general terms: In ITC the heat of successive injections is recorded.
The target is the same in assay [4]. Kind of assay: BIAcore, calculated from kdiss and kass.
Assay [5] shares this target. Description: isothermal titration calorimetry, 25° C.
Assay [6] has the same target. Kind of assay: titration calorimetry, 37° C., 10 mM CaCl2.
For assay [7] the target is unchanged. Description: titration microcalorimetry, 106 uM FIX injected into 2 uM mAb.
Assay [8] shares this target. Description: BIAcore, antibody captured on immobilised protein A, rhFIX at 49 nM, 5 mM Ca2+.
The target is the same in assay [9]. Description: titration calorimetry, 25° C. (calculated from the van't Hoff equation), 10 mM CaCl2.
The target is the same in assay [10]. Description: BIAcore, calculated.
For assay [11] the target is unchanged. Kind of assay: BIAcore kinetics of Factor IX binding.

recombinant human Factor IX (rhFIX, Genetics Institute) (human), sequence (P00740 47-461 limits assumed): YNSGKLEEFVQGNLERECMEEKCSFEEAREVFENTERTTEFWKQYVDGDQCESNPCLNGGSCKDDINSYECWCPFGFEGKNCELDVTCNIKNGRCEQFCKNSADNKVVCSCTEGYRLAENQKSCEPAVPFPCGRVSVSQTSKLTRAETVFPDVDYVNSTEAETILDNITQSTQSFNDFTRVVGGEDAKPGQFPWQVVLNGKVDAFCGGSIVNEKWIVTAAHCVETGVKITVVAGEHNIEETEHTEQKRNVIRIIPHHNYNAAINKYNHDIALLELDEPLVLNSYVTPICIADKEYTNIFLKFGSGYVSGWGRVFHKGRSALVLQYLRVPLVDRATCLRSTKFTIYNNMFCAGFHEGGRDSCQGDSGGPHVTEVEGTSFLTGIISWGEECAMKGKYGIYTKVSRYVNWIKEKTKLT
human Factor IX (human), sequence (P00740 47-461 limits assumed): as above

B1: murine anti-Factor IX monoclonal antibody BC2 (antibody, mouse IgG2a, V domains shown)
VH: QIQLVQSGPELKKPGETVKISCKASGYTFTNYGMNWVKQAPGKGLKWMGWINTRNGKSTYVDDFKGRFAFSLESSASTANLQIDNLKDEDTATYFCTREGNMDGYFPFTYWGQGTLVTVSA
VL: QIVLSQSPAILSASPGEKVTMTCRASSSVNYMHWYQQKPGSSPKPWIYATSNLASGVPARFSGSGSGTSYSLTISRVEAEDAATYYCQQWSINPRTFGGGTKLEIKR
In the assay with human Factor IX (human), B1 gave an IC50, nM (aPTT of human plasma) of 50 nM; an aPTT at saturating antibody of 90 s; an aPTTmax / aPTTnormal × 100 % of 350%.

B2: humanized anti-Factor IX monoclonal antibody SB 249417 (antibody, V domains shown)
VH: QVQLVQSGSELKKPGASVKVSCKASGYTFTNYGMNWVRQAPGQGLKWMGWINTRNGKSTYVDDFKGRFVFSLDSSVSTAYLQISSLKADDTAVYYCTREGNMDGYFPFTYWGQGTLVTVSS
VL: QIVLTQSPSSLSASVGDRVTITCRASSSVNYMHWYQQKPGKAPKPWIYATSNLASGVPSRFSGSGSGTDYTFTISSLQPEDIATYYCQQWSINPRTFGQGTKVEIKR
A word on the Kd: it is a measure of binding affinity in units of concentration. In general, koff refers to the rate constant with which the complex falls apart. The term kon denotes the second-order rate constant of association. In the case of B2, the Kd in [1] is 2 nM; in assay [4] it was 1.9 nM; in assay [5], 4 nM; in assay [6], 12 nM; in [9], 4 nM. Also, the koff in assay [1] worked out at 0.0004 s⁻¹; in [8], 0.00041 s⁻¹. Also, the kon in assay [1] and in assay [8] was 200000 M⁻¹ s⁻¹ in each case. Also, the Molar Binding Ratio FIX/mAb in assay [2] was found to be 1.5 FIX/mAb. In addition, the Stoichiometry of Factor IX Binding (moles Factor IX per mole mAb) in assay [3] amounted to 1.5. Moreover, in [7], the molar binding ratio at the equivalence point came out at 2 FIX per mAb.

B3: humanized anti-Factor IX monoclonal antibody SB 257732 (antibody, V domains shown)
VH: QIQLVQSGSELKKPGASVKVSCKASGYTFTNYGMNWVRQAPGQGLEWMGWINTRNGKSTYVDDFKGRFVFSLDTSVSTAYLQISSLKAEDTAVYFCTREGNMDGYFPFTYWGQGTLVTVSS
VL: QIVLTQSPSSLSASVGDRVTITCRASSSVNYMHWYQQKPGKAPKPWIYATSNLASGVPSRFSGSGSGTDYTLTISSLQPEDFATYYCQQWSINPRTFGGGTKLEIKR
Turning to B3, the Kd in assay [10] is 1.5 nM; in [6], 9 nM; in assay [9] it was 4 nM. Moreover, the Molar Binding Ratio FIX/mAb in [2] turned out to be 1.8 FIX/mAb. The koff in assay [11] is 0.0012 s⁻¹. Moreover, the kon in assay [11] was 1.1e+06 M⁻¹ s⁻¹.

B4: humanized anti-Factor IX monoclonal antibody SB 257731 (antibody, V domains shown)
VH: QVQLVQSGSELKKPGASVKVSCKASGYTFTNYGMNWVRQAPGQGLKWMGWINTRNGKSTYVDDFKGRFVFSLDSSVSTAYLQISSLKADDTAVYYCTREGNMDGYFPFTYWGQGTLVTVSS
VL: QIVLTQSPATLSLSPGERATLSCRASSSVNYMHWYQQRPGQAPKPWIYATSNLASGVPARFSGSGSGTDYTLTISSLEPEDFAVYYCQQWSINPRTFGGGTKVEIK
On to B4, for which, in assay [10], the Kd was 1.1 nM. Moreover, in assay [11], the koff was 0.00099 s⁻¹ and the kon came to 920000 M⁻¹ s⁻¹.

B5: humanized anti-Factor IX monoclonal antibody SB 249413 (antibody, V domains shown)
VH: QVQLVQSGSELKKPGASVKVSCKASGYTFTNYGMNWVRQAPGQGLEWMGWINTRNGKSTYVDDFKGRFVFSLDTSVSTAYLQISSLKADDTAVYYCAREGNMDGYFPFTYWGQGTLVTVSS
VL: EIVLTQSPATLSLSPGERATLSCRASSSVNYMHWYQQRPGQAPRLLIYATSNLASGIPARFSGSGSGTDFTLTISSLEPEDFAVYYCQQWSINPRTFGGGTKVEIKR
In the case of B5, the Kd in assay [10] is 3.7 to 5.1 nM; in [6], 12 nM; in assay [9], 6 nM. For the same molecule, in [2], the Molar Binding Ratio FIX/mAb is 1.9 FIX/mAb. The koff in assay [11] worked out at 0.0028 s⁻¹. The kon in assay [11] was 650000 M⁻¹ s⁻¹.

B6: humanized anti-Factor IX monoclonal antibody SB 249415 (antibody, V domains shown)
VH: QVQLVQSGSELKKPGASVKVSCKASGYTFTNYGMNWVRQAPGQGLKWMGWINTRNGKSTYVDDFKGRFVFSLDSSVSTAYLQISSLKADDTAVYYCTREGNMDGYFPFTYWGQGTLVTVSS
VL: EIVLTQSPATLSLSPGERATLSCRASSSVNYMHWYQQRPGQAPKPWIYATSNLASGVPARFSGSGSGTDFTLTISSLEPEDFAVYYCQQWSINPRTFGGGTKVEIKR
For B6, the figures for the Kd in assay [10], in [6] and in assay [9] were 1.1 to 2.3 nM, 7 nM and 3 nM, respectively. The Molar Binding Ratio FIX/mAb in [2] was 1.7 FIX/mAb. For the same molecule, the koff in [11] turned out to be 0.00018 s⁻¹. The kon in assay [11] came to 750000 M⁻¹ s⁻¹.

B7: humanized anti-Factor IX monoclonal antibody SB 249416 (antibody, V domains shown)
VH: QVQLVQSGSELKKPGASVKVSCKASGYTFTNYGMNWVRQAPGQGLKWMGWINTRNGKSTYVDDFKGRFVFSLDSSVSTAYLQISSLKADDTAVYYCTREGNMDGYFPFTYWGQGTLVTVSS
VL: EIVLTQSPATLSLSPGERATLSCRASSSVNYMHWYQQRPGQAPKPWIYATSNLASGVPARFSGSGSGTDYTLTISSLEPEDFAVYYCQQWSINPRTFGGGTKVEIKR
Take B7: in [10], the Kd was 0.8 nM. Moreover, in assay [11], the koff stood at 0.00041 s⁻¹ and the kon is 520000 M⁻¹ s⁻¹.
